Kd data for 4 proteins are collected here from article PMC3210482 (Journal of molecular biology, 2011).

Like-named read-outs stand apart in the source and are kept apart here.

Data set [1] deals with the molecule itself. The experiment in a line: FRET or BRET.
Data set [2] concerns the molecule itself. The data set is described as follows: FRET or BRET. This is another data set of the same source. A general note: Bioluminescence resonance energy transfer reports proximity on the nanometre scale.

B1: RstBHDC (cytoplasmic HAMP, DHp and CA domains of E. coli histidine kinase RstB, amino acids 157-433) (domain or fragment, UniProt P18392 157-433, looked up)
chain: MRPHWQDMLKLEAAAQRFGDGHLNERIHFDEGSSFERLGVAFNQMADNINALIASKKQLIDGIAHELRTPLVRLRYRLEMSDNLSAAESQALNRDISQLEALIEELLTYARLDRPQNELHLSEPDLPLWLSTHLADIQAVTPDKTVRIKTLVQGHYAALDMRLMERVLDNLLNNALRYCHSTVETSLLLSGNRATLIVEDDGPGIAPENREHIFEPFVRLDPSRDRSTGGCGLGLAIVHSIALAMGGTVNCDTSELGGARFSFSWPLWHNIPQFTSA
On to B1, for which the Kd (as a rule, a measure of binding affinity in units of concentration) in data set [1] was determined as 300 nM.

B2: RstBDC (DHp and CA domains of E. coli RstB, amino acids 201-433) (domain or fragment, UniProt P18392 201-433, looked up)
chain: MADNINALIASKKQLIDGIAHELRTPLVRLRYRLEMSDNLSAAESQALNRDISQLEALIEELLTYARLDRPQNELHLSEPDLPLWLSTHLADIQAVTPDKTVRIKTLVQGHYAALDMRLMERVLDNLLNNALRYCHSTVETSLLLSGNRATLIVEDDGPGIAPENREHIFEPFVRLDPSRDRSTGGCGLGLAIVHSIALAMGGTVNCDTSELGGARFSFSWPLWHNIPQFTSA
On to B2, for which, in data set [2], the Kd turned out to be 270000 nM.

B3: EnvZDC (DHp and CA domains of E. coli EnvZ, amino acids 223-450) (domain or fragment, UniProt P0AEJ4 223-450, looked up)
chain: MAAGVKQLADDRTLLMAGVSHDLRTPLTRIRLATEMMSEQDGYLAESINKDIEECNAIIEQFIDYLRTGQEMPMEMADLNAVLGEVIAAESGYEREIETALYPGSIEVKMHPLSIKRAVANMVVNAARYGNGWIKVSSGTEPNRAWFQVEDDGPGIAPEQRKHLFQPFVRGDSARTISGTGLGLAIVQRIVDNHNGMLELGTSERGGLSIRAWLPVPVTRAQGTTKEG
In the case of B3, the Kd in data set [1] stood at 100 nM.

B4: EnvZHDC (cytoplasmic HAMP, DHp and CA domains of E. coli histidine kinase EnvZ, amino acids 179-450) (domain or fragment, UniProt P0AEJ4 179-450, looked up)
chain: IRIQNRPLVDLEHAALQVGKGIIPPPLREYGASEVRSVTRAFNHMAAGVKQLADDRTLLMAGVSHDLRTPLTRIRLATEMMSEQDGYLAESINKDIEECNAIIEQFIDYLRTGQEMPMEMADLNAVLGEVIAAESGYEREIETALYPGSIEVKMHPLSIKRAVANMVVNAARYGNGWIKVSSGTEPNRAWFQVEDDGPGIAPEQRKHLFQPFVRGDSARTISGTGLGLAIVQRIVDNHNGMLELGTSERGGLSIRAWLPVPVTRAQGTTKEG
For B4, in data set [1], the Kd worked out at 400 nM.
